Measurements reported in US20190159997A1, “COMPOSITIONS COMPRISING POLYESTERS OF BIOLOGICAL ORIGIN AND BIOCOMPATIBLE INORGANIC COMPOUNDS, AND USES THEREOF IN THE COSMETIC FIELD” (BIO-ON S.p.A., priority 2016, published 2019).

Tested on: Streptococcus mutans ATCC 35668
Experiment: antibacterial effectiveness by bacterial count on Petri plates
Assay type: cell-based
Conditions: growth of Streptococcus mutans ATCC 35668
Protocol: Following the same procedure described in Example 4, two compositions of lactoferrin, hydroxyapatite and PHA were prepared, using solutions of lactoferrin with concentrations equal to 60 mg/ml and 80 mg/ml, and the same aqueous suspensions of HA and PHA used in Example (weight ratio between lactoferrin and mixture of HA+PHA equal to 1:1). The antibacterial effectiveness of these compositions was assessed, by means of bacterial count on Petri plates with respect to the growth of Streptococcus mutans ATCC 35668.

B1: lactoferrin (protein, UniProt P02788 20-710, looked up)
Lactotransferrin: GRRRSVQWCAVSQPEATKCFQWQRNMRKVRGPPVSCIKRDSPIQCIQAIAENRADAVTLDGGFIYEAGLAPYKLRPVAAEVYGTERQPRTHYYAVAVVKKGGSFQLNELQGLKSCHTGLRRTAGWNVPIGTLRPFLNWTGPPEPIEAAVARFFSASCVPGADKGQFPNLCRLCAGTGENKCAFSSQEPYFSYSGAFKCLRDGAGDVAFIRESTVFEDLSDEAERDEYELLCPDNTRKPVDKFKDCHLARVPSHAVVARSVNGKEDAIWNLLRQAQEKFGKDKSPKFQLFGSPSGQKDLLFKDSAIGFSRVPPRIDSGLYLGSGYFTAIQNLRKSEEEVAARRARVVWCAVGEQELRKCNQWSGLSEGSVTCSSASTTEDCIALVLKGEADAMSLDGGYVYTAGKCGLVPVLAENYKSQQSSDPDPNCVDRPVEGYLAVAVVRRSDTSLTWNSVKGKKSCHTAVDRTAGWNIPMGLLFNQTGSCKFDEYFSQSCAPGSDPRSNLCALCIGDEQGENKCVPNSNERYYGYTGAFRCLAENAGDVAFVKDVTVLQNTDGNNNEAWAKDLKLADFALLCLDGKRKPVTEARSCHLAMAPNHAVVSRMDKVERLKQVLLHQQAKFGRNGSDCPDKFCLFQSETKNLLFNDNTECLARLHGKTTYEKYLGPQYVAGITNLKKCSTSPLLEACEFLRK
notes: lactoferrin alone, aqueous solution with a concentration of 60 mg/ml and 80 mg/ml; protein having an antioxidizing action
Reduction bacterial growth (%) (lactoferrin solution 60 mg/ml): 30%
Reduction bacterial growth (%) (lactoferrin solution 80 mg/ml): 35%
